Columns and labels:
Hera_RBD [1] = biological target: T1, Hera_RBD (Thermus thermophilus, UniProt O07897 424-510); experiment: NMR; core CSPs, none in C-tail; Anisotropy: 50 mM Tris/HCl pH 7.5, 150 mM NaCl, 5 mM MgCl2 (Fig 2), 25 C, 50 nM RNA; EMSA: same Tris/NaCl, 12% glycerol, 25 C; NMR: 25 mM Bis-Tris/HCl pH 6.0, 50 mM NaCl, 10% D2O, 37 C; details: protein: recombinant
T1 sequence: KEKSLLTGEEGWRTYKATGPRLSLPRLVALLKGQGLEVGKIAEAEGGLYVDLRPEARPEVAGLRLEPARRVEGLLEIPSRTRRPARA

Hera full-length = biological target: T2, Hera full-length (Thermus thermophilus, UniProt O07897 1-510); experiment: fluorescence anisotropy; 1 uM Hera; complex forms instantaneously; Anisotropy: 50 mM Tris/HCl pH 7.5, 150 mM NaCl, 5 mM MgCl2 (Fig 2), 25 C, 50 nM RNA; EMSA: same Tris/NaCl, 12% glycerol, 25 C; NMR: 25 mM Bis-Tris/HCl pH 6.0, 50 mM NaCl, 10% D2O, 37 C; details: protein: recombinant; chain copies: 2; label: 3'-fluorescein on 9mer; 9 bp duplex (strand 1 nt 3-11) plus 3' hairpin; 5' overhang 2 nt
T2 sequence: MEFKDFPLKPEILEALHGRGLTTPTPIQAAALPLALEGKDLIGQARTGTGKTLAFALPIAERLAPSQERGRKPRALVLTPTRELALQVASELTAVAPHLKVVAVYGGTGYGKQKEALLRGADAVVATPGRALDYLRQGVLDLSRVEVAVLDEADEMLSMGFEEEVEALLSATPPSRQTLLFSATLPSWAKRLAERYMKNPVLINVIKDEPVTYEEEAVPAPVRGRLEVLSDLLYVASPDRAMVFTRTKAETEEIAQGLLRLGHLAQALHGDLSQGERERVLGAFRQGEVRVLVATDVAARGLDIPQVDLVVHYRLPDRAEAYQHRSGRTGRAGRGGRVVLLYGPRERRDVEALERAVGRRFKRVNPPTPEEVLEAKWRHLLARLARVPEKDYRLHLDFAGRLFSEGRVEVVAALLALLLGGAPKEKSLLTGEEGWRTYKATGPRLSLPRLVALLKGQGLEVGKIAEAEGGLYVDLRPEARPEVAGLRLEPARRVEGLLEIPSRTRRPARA

Hera_RBD [2] = biological target: T1, Hera_RBD; experiment: NMR; CSP pattern similar to 21mer; Anisotropy: 50 mM Tris/HCl pH 7.5, 150 mM NaCl, 5 mM MgCl2 (Fig 2), 25 C, 50 nM RNA; EMSA: same Tris/NaCl, 12% glycerol, 25 C; NMR: 25 mM Bis-Tris/HCl pH 6.0, 50 mM NaCl, 10% D2O, 37 C; details: protein: recombinant; hairpin with 5' single strand
Hera_RBD [3] = biological target: T1, Hera_RBD; experiment: NMR; pH 6.0, 50 mM NaCl, 37 C; Anisotropy: 50 mM Tris/HCl pH 7.5, 150 mM NaCl, 5 mM MgCl2 (Fig 2), 25 C, 50 nM RNA; EMSA: same Tris/NaCl, 12% glycerol, 25 C; NMR: 25 mM Bis-Tris/HCl pH 6.0, 50 mM NaCl, 10% D2O, 37 C; details: protein: recombinant
Hera_RBD [4] = biological target: T1, Hera_RBD; experiment: ITC; 5 mM Mg2+; estimate, no initial baseline; Anisotropy: 50 mM Tris/HCl pH 7.5, 150 mM NaCl, 5 mM MgCl2 (Fig 2), 25 C, 50 nM RNA; EMSA: same Tris/NaCl, 12% glycerol, 25 C; NMR: 25 mM Bis-Tris/HCl pH 6.0, 50 mM NaCl, 10% D2O, 37 C; details: protein: recombinant; label: none (NMR, ITC); 5'-fluorescein (EMSA); hairpin with 5' single strand
GST-Hera_RBD = biological target: T3, GST-Hera_RBD (Thermus thermophilus, UniProt O07897 424-510); experiment: EMSA; 6 uM RNA; 12% glycerol; Anisotropy: 50 mM Tris/HCl pH 7.5, 150 mM NaCl, 5 mM MgCl2 (Fig 2), 25 C, 50 nM RNA; EMSA: same Tris/NaCl, 12% glycerol, 25 C; NMR: 25 mM Bis-Tris/HCl pH 6.0, 50 mM NaCl, 10% D2O, 37 C; details: protein: recombinant; tags: N-terminal GST; label: none (NMR, ITC); 5'-fluorescein (EMSA); hairpin with 5' single strand
T3 sequence: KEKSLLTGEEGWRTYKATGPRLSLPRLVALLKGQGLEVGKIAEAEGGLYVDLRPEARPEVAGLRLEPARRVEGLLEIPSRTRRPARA

Hera_RBD [5] = biological target: T1, Hera_RBD; experiment: NMR; Kd1, RBD core resonances (424-493); Anisotropy: 50 mM Tris/HCl pH 7.5, 150 mM NaCl, 5 mM MgCl2 (Fig 2), 25 C, 50 nM RNA; EMSA: same Tris/NaCl, 12% glycerol, 25 C; NMR: 25 mM Bis-Tris/HCl pH 6.0, 50 mM NaCl, 10% D2O, 37 C; details: protein: recombinant; hairpin with 5' single strand
Hera_RBD_dC-tail = biological target: T4, Hera_RBD_dC-tail (Thermus thermophilus, UniProt O07897 424-491, del492-510); experiment: fluorescence anisotropy; Anisotropy: 50 mM Tris/HCl pH 7.5, 150 mM NaCl, 5 mM MgCl2 (Fig 2), 25 C, 50 nM RNA; EMSA: same Tris/NaCl, 12% glycerol, 25 C; NMR: 25 mM Bis-Tris/HCl pH 6.0, 50 mM NaCl, 10% D2O, 37 C; details: protein: recombinant; label: 5'-fluorescein
T4 sequence: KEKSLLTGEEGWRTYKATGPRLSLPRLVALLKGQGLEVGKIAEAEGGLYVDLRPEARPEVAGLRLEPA

Hera_RBD [6] = biological target: T1, Hera_RBD; experiment: as above; details: protein: recombinant; label: 5'-fluorescein

B1: 5mer (ssRNA)
RNA: GGGCC
binding result (Hera_RBD [1]): binds

B2: 32/9mer (mixed)
RNA 1: GCAGGUCCCAAGGGUUGGGCUGUUCGCCCAUU
RNA 2: UUGGGACCU
binding result (Hera full-length): binds

B3: 21mer_modloop (structured_RNA)
RNA: GGGUUGGGCUAUUCGCCCAUU
binding result (Hera_RBD [2]): binds

B4: 21mer (structured_RNA)
RNA: GGGUUGGGCUGUUCGCCCAUU
Kd (Hera_RBD [3]; label: none (NMR, ITC), 5'-fluorescein (EMSA), hairpin with 5' single strand): ~6 µM | Kd (Hera_RBD [4]): ~40 µM | Kd (GST-Hera_RBD): ~23 µM

B5: 21mer_mod (structured_RNA)
RNA: CACUUGGGCUGUUCGCCCAUU
Kd (Hera_RBD [5]): ~52.9 µM

B6: 4mer (ssRNA)
RNA: GGGC
Kd (Hera_RBD_dC-tail): 8 µM | Kd (Hera_RBD [6]): 11 µM

B7: 19mer (structured_RNA)
RNA: GUUGGGCUGUUCGCCCAUU
Kd (Hera_RBD [3]; hairpin): ~75 µM
